System: peptide library, one residue held at a place counted from the Y acceptor
Assay: relative phosphorylation of the sub-library (ratio to the mean residue at this position); higher = residue favoured
How it was run: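 Peptide library mixtures, biotinylated and centred on Tyr, each fixed one residue at one position from −5 to +5. Purified recombinant kinases were incubated with them for 90 min in 384-well plates alongside 50 μM ATP and γ-32P-ATP, and the captured, rinsed peptides on streptavidin membranes were measured by phosphorimaging and ImageQuant. Normalization divided each position's intensities by the sum of its 18 randomized residues (16 for the Ser/Thr-free library) and multiplied by that number, so that values give phosphorylation relative to the mean randomized residue.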

Sequence of NEK10, construct: aa266-895, human (Q6ZWH5 266-895, looked up): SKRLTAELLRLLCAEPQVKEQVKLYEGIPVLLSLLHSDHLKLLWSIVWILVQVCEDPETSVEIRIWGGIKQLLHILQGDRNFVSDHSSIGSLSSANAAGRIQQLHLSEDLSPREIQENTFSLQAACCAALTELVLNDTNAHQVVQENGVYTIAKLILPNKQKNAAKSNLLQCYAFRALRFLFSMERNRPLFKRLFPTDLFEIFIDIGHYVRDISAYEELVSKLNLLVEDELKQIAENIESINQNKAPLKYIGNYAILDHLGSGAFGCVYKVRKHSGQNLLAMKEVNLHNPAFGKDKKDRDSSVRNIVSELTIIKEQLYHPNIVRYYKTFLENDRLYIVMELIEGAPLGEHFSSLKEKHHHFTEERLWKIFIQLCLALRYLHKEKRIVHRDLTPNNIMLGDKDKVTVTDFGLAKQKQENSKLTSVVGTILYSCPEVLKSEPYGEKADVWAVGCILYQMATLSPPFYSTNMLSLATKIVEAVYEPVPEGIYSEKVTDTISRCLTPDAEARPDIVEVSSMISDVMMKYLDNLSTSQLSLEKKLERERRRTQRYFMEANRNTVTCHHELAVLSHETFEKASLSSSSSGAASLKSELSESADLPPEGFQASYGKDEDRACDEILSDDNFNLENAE
Sequence of NTRK2, construct: aa455-end, human (Q16620 455-822, looked up): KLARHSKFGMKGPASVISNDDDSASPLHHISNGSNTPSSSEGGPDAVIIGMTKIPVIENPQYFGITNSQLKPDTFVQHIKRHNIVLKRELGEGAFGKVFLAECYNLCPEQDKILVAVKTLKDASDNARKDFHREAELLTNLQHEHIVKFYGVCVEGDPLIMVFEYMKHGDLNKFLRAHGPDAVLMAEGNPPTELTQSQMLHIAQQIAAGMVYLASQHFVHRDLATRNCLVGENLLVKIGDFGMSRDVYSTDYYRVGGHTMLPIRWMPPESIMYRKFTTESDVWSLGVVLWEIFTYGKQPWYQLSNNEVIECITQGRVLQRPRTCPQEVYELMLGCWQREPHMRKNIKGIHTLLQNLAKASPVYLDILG

NEK10, construct: aa266-895, human (from UniProt Q6ZWH5)
relative phosphorylation
Settings | at +1 | at +2 | at +3 | at +4 | at +5 | at -1 | at -2 | at -3 | at -4 | at -5
A fixed | 0.35 | 0.54 | 0.755 | 0.959 | 0.812 | 0.916 | 0.855 | 1.05 | 1.13 | 1.08
D fixed | 0.229 | 0.823 | 0.78 | 0.87 | 0.766 | 0.564 | 0.825 | 0.727 | 0.992 | 0.965
E fixed | 0.173 | 0.582 | 0.836 | 0.71 | 0.776 | 0.798 | 0.772 | 0.745 | 0.897 | 0.981
F fixed | 2.39 | 0.883 | 1.07 | 1.05 | 1.09 | 1.19 | 1.25 | 0.991 | 0.956 | 0.969
G fixed | 0.353 | 1.31 | 1.12 | 1.1 | 1.08 | 1.01 | 1.12 | 0.981 | 1.16 | 1.17
H fixed | 3.09 | 1.41 | 1.18 | 1.06 | 1.05 | 1.28 | 1.12 | 1.16 | 1.14 | 1.15
I fixed | 0.888 | 0.45 | 0.571 | 0.794 | 0.692 | 0.801 | 0.637 | 0.801 | 0.805 | 0.869
K fixed | 0.373 | 1.05 | 1.13 | 1.21 | 1.41 | 0.876 | 1.13 | 1.21 | 1.27 | 1.2
L fixed | 1.8 | 0.577 | 0.754 | 0.944 | 0.887 | 1.21 | 1.06 | 1.09 | 0.852 | 0.826
M fixed | 0.954 | 0.783 | 1.12 | 1 | 0.918 | 1.13 | 0.989 | 0.982 | 1.01 | 0.867
N fixed | 0.565 | 1.55 | 1.24 | 1.02 | 1.07 | 0.796 | 1.4 | 1.02 | 0.84 | 0.987
P fixed | 0.387 | 1.63 | 1.29 | 1.13 | 1.05 | 0.715 | 1.02 | 0.946 | 1.14 | 1.07
Q fixed | 0.461 | 1.65 | 1.28 | 0.915 | 1.06 | 0.916 | 0.998 | 1.07 | 0.974 | 0.931
R fixed | 0.451 | 1.25 | 1.34 | 1.29 | 1.49 | 1.05 | 1.19 | 1.55 | 1.19 | 1.31
V fixed | 0.455 | 0.473 | 0.584 | 0.771 | 0.703 | 0.708 | 0.607 | 0.695 | 0.673 | 0.735
W fixed | 3.08 | 1.04 | 0.934 | 1.17 | 1.15 | 2.04 | 1.03 | 0.981 | 0.971 | 0.901
pThr fixed | 0.242 | 0.585 | 0.599 | 0.764 | 0.714 | 0.515 | 0.453 | 0.608 | 0.64 | 0.774
pTyr fixed | 0.248 | 0.44 | 0.693 | 0.723 | 0.72 | 1.03 | 0.783 | 0.764 | 0.734 | 0.812

NTRK2, construct: aa455-end, human (from UniProt Q16620)
relative phosphorylation
Settings | at +1 | at +2 | at +3 | at +4 | at +5 | at -1 | at -2 | at -3 | at -4 | at -5
A fixed | 1.42 | 0.697 | 0.136 | 0.894 | 0.979 | 0.684 | 0.962 | 0.876 | 0.971 | 0.87
D fixed | 0.407 | 0.696 | 0.42 | 0.788 | 1.01 | 2.06 | 1.2 | 1.25 | 1.11 | 1.21
E fixed | 0.546 | 0.786 | 0.308 | 0.894 | 0.831 | 0.84 | 1.28 | 1.36 | 1.33 | 1.1
F fixed | 1.81 | 1.35 | 1.88 | 1.09 | 1.16 | 1.12 | 0.959 | 1.15 | 1.32 | 1.06
G fixed | 0.747 | 0.491 | 0.569 | 1.18 | 1.05 | 0.45 | 1.02 | 0.864 | 0.996 | 0.954
H fixed | 1.23 | 0.808 | 0.871 | 1.11 | 1.01 | 1.36 | 1.13 | 1.19 | 1.05 | 1.09
I fixed | 1.58 | 1.27 | 2.41 | 0.847 | 0.742 | 1.31 | 0.745 | 0.661 | 0.825 | 0.894
K fixed | 0.257 | 0.893 | 0.387 | 0.97 | 0.979 | 0.259 | 0.841 | 0.732 | 0.752 | 1.05
L fixed | 1.05 | 1.1 | 2.12 | 0.898 | 0.989 | 1.38 | 1.03 | 0.878 | 0.921 | 0.923
M fixed | 1.61 | 1.17 | 1.63 | 1.02 | 0.922 | 0.958 | 0.809 | 0.982 | 0.82 | 0.979
N fixed | 0.37 | 0.919 | 0.467 | 0.774 | 0.928 | 2.13 | 1.22 | 1.26 | 0.921 | 1.13
P fixed | 0.261 | 0.723 | 0.785 | 1.06 | 1.23 | 0.772 | 0.886 | 0.789 | 1.1 | 0.884
Q fixed | 0.811 | 0.927 | 0.546 | 0.993 | 0.912 | 0.907 | 1.08 | 0.964 | 1.12 | 1.09
R fixed | 0.266 | 1.16 | 0.65 | 0.997 | 1.03 | 0.258 | 0.877 | 0.785 | 0.84 | 1.06
S fixed | 0.824 | 0.914 | 0.728 | 0.965 | 1.06 | 0.713 | 1.15 | 1.11 | 0.774 | 0.872
T fixed | 0.776 | 0.897 | 0.702 | 0.838 | 0.914 | 0.805 | 0.888 | 0.93 | 0.635 | 0.776
V fixed | 2.18 | 1.24 | 1.69 | 0.911 | 0.83 | 1.17 | 0.802 | 0.769 | 0.81 | 0.806
W fixed | 1.85 | 1.95 | 1.72 | 1.76 | 1.42 | 0.822 | 1.11 | 1.46 | 1.71 | 1.25
pThr fixed | 1.17 | 0.567 | 0.302 | 0.689 | 0.807 | 0.824 | 0.828 | 0.83 | 0.932 | 0.913
pTyr fixed | 1.77 | 1.3 | 0.567 | 1.03 | 0.776 | 3.47 | 1.13 | 1.22 | 1.26 | 0.986

Reference: the supplement of paper PMC11136658
